From the supplement of paper PMC10126150
± gives the standard deviation of the averaged measurements.

System: ATP
Experiment: switch fluorescence ratio, 500 uM ATP over buffer (Cy3 cluster intensity, sum of 5 cycles each) (fold (ratio)); higher = stronger signal-on switching upon ATP binding; sequences stand for … in TCGTCGGCAGCGTCAGATGTGTATAAGAGACAGTTTTTTTTTTTTTTTTTTTTTTTTT…TC
Details: aptamer strand: ATP DNA aptamer (quencher-CACCTGGGGGAGTATTGCGGAGGAAGG + anchor), 100 nM annealed; ATP concentration: 500 uM
Method in brief: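 Values give the fluorescence ratio for each switch-domain sequence, averaged from per-cluster ratios of summed target-cycle to summed buffer-cycle Cy3 intensity. The Cy3-labelled switching-strand clusters sat on a modified Illumina MiSeq flow-cell, were annealed to 100 nM quencher-labelled ATP aptamer, and were imaged in selection buffer, then after 15 min with 500 uM ATP at 22 °C. Five cycles ran with NaOH stripping and re-annealing between them, and clusters outside 100-1000 RFU were excluded.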
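Note: ATP exposure 15 min at 22 °C before imaging.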

Sequence | switch fluorescence ratio
ACAAGCTTGT | 0.975 ± 0.063
CCGTTAGTAA | 3.13 ± 0.46
GCTAGCGGTC | 1.08 ± 0.02
TTGCCTAAGC | 0.974 ± 0.016
TATGTGTTGC | 1.03 ± 0.023
TATTAATTGG | 0.9932 ± 0.0037
GCGGGTACTG | 1.001 ± 0.0052
AATGATCGGG | 1.004 ± 0.0094
AATTAACTAT | 1.02 ± 0.027
CGTTGTTTTG | 0.9848 ± 0.0091
GCTCGACTTT | 1.02 ± 0.012
TGTTTGGTTT | 1.01 ± 0.013
CTTGGTCGGC | 1.068 ± 0.0026
GCTGCGACCA | 1.131 ± 0.0024
GGGTTTTAGG | 0.999 ± 0.032
TTAGTTTAAG | 0.999 ± 0.017
TGGGTGGACA | 1.02 ± 0.08
GCAAGTAGTT | 1.03 ± 0.053
AAGCTTTTCA | 1.03 ± 0.041
AGTGAAGGGG | 1.1 ± 0.15
CCACAGTAAT | 4.75 ± 0.34
GCGGGTAGTG | 1.02 ± 0.028
AAATGGCCAT | 1.01 ± 0.013
ATAAGTGAAT | 1.01 ± 0.013
TATTTTGAGT | 0.989 ± 0.012

Sequence | switch fluorescence ratio
GGGTAGGCTT | 0.965 ± 0.023
TATACATTGG | 0.98862 ± 5.5e-05
GCCGCGTGCG | 1.06 ± 0.024
TGCCGATCAG | 0.993 ± 0.05
TTCCAAGGGA | 1 ± 0.029
CCGGGATGGT | 1.14 ± 0.057
TGGGGTTA | 0.98448 ± 0.00037
AGGGCCAGGT | 1.11 ± 0.023
TTTTGGGTAG | 0.984 ± 0.03
TTCTGTGGAA | 1.04 ± 0.036
ACTAGTAGTC | 0.994 ± 0.012
GCCCCCCACA | 1.1 ± 0.048
GATTGGGGTA | 0.978 ± 0.038
ACCGCTGTGG | 1.06 ± 0.019
TATCGGCTGT | 1.01 ± 0.011
CAGGGGCGGG | 0.966 ± 0.11
CACGTGTTGC | 1.04 ± 0.03
CAGAAGGATA | 1.03 ± 0.013
AAGTGTGCGA | 0.997 ± 0.028
TTTTATCTAA | 0.988 ± 0.048
TCGTGGGTAT | 0.998 ± 0.025
GAGATTGGAA | 1.002 ± 0.0025
GAAAGTCGGA | 0.998 ± 0.066
TAGCAAAAAG | 1.02 ± 0.031
AATCTGTCCT | 1.04 ± 0.027

Sequence | switch fluorescence ratio
TTCTAATCGG | 1.006 ± 0.01
ATCCGCCGCT | 1.72 ± 0.089
GGGTTTGACT | 0.998 ± 0.031
AGTCGCGGAG | 1 ± 0.08
ATTGGTGTAA | 1.01 ± 0.015
TAGTTTCGAT | 0.977 ± 0.019
ATCGGGATTA | 0.987 ± 0.021
TTTTGCATGA | 1 ± 0.043
CGGATGGTGT | 0.97 ± 0.029
GAAAAAACGT | 1.05 ± 0.038
TACTTTGCG | 1.01 ± 0.017
TCGAAGTATC | 1.12 ± 0.058
CGAGTTTGGG | 1.001 ± 0.0031
TGTAAGCCGG | 1.05 ± 0.07
AGGTGCTTGA | 0.975 ± 0.078
GAGGGGAGCG | 0.969 ± 0.043
CGGGATTGGT | 1.01 ± 0.13
TAGGGTTTGT | 0.989 ± 0.031
TGAAGTTTAC | 2.03 ± 1.4
CGGAGTTAGC | 1.13 ± 0.028
ATCAGATTTT | 0.9867 ± 0.0034
TCTGGGGCTG | 0.969 ± 0.016
GCGACAAAAT | 1.11 ± 0.047
GTCGGGAAGT | 0.958 ± 0.024
GGGGTTTGAT | 0.996 ± 0.021

Sequence | switch fluorescence ratio
AACTATATCT | 1.05 ± 0.021
ATTGATTAGG | 0.988 ± 0.043
CTGGGATTTG | 0.997 ± 0.049
TTCTGGTCTA | 0.986 ± 0.011
GGGGTTTAGT | 1.01 ± 0.022
ATTTTCATTA | 0.996 ± 0.0096
GTGGCGAGGG | 0.996 ± 0.0078
GAAATCATGT | 0.977 ± 0.023
GTGTTTAAAG | 0.98 ± 0.02
GCGGCTTAAC | 1.02 ± 0.022
CTGATTACGC | 1.37 ± 0.016
TAGGGCGGGG | 0.988 ± 0.025
ATTTCGTGCG | 1.01 ± 0.061
CCTAAGTGTT | 1.06 ± 0.069
TCGGTAGGGC | 1.025 ± 0.0089
TATAATCCAG | 0.984 ± 0.024
ATGTTTATAG | 0.98 ± 0.024
CTGACCGGTC | 1.017 ± 0.0087
TAAAACCAGT | 1.04 ± 0.035
GTGTCAGTTG | 0.93646 ± 0.00087
TTTCGGTGTG | 0.977 ± 0.0098
GGAGGGACTG | 1.06 ± 0.17
ACGAGTCTGC | 0.96588 ± 0.00086
AACGGGGTAA | 0.948 ± 0.037
GGGCGCCCCA | 0.976 ± 0.013

Sequence | switch fluorescence ratio
GGCGGGGTGC | 1.016 ± 0.0073
CGATAACCTT | 1.48 ± 0.48
GTAGTAGCGT | 0.969 ± 0.022
TTGGATAGTT | 1.09 ± 0.16
TCACATTTGG | 1.03 ± 0.045
ATAAAGTTGG | 0.991 ± 0.0075
AACATGGAGG | 0.968 ± 0.031
CTAAGTCGAG | 0.966 ± 0.037
CTTCTAGGCA | 1.04 ± 0.032
GCTGTAGGTT | 1 ± 0.011
TTTTTTGATA | 0.981 ± 0.022
TGAAACATTT | 0.975 ± 0.036
CTCCTGGACT | 1.069 ± 0.0061
CGGGCTGGAA | 1.004 ± 0.0086
CGTTATACTG | 1.07 ± 0.027
ACAGGGAGTT | 0.9911 ± 0.0078
TTAACTGTTT | 0.992 ± 0.019
TTTTAGGGTG | 1.07 ± 0.072
TAGCTGTAAT | 1.02 ± 0.046
GCGCCTAGGG | 0.999 ± 0.018
CGTTGGGAGG | 0.979 ± 0.016
TGGTTAAATT | 0.997 ± 0.033
ACTGGATTGG | 1.01 ± 0.042
AGGGTACGGG | 1.063 ± 0.0037
TCATTTGGAA | 0.99 ± 0.025

Sequence | switch fluorescence ratio
AAGCTGAGAT | 1.01 ± 0.024
TGGTTGGGGA | 0.994 ± 0.036
GTGGGGGGGA | 1.01 ± 0.023
TGGAGAAAGT | 1.03 ± 0.067
CGAGACAGGT | 1.04 ± 0.0098
CTGCTCGTAA | 1.99 ± 0.18
ACATTCACGT | 1.52 ± 0.033
GACGTATATT | 1.08 ± 0.0067
ATAGTCAGGG | 0.988 ± 0.036
TTTAATTGGC | 1.17 ± 0.19
AATCATGGAG | 0.9891 ± 0.004
CTGTTTAAGT | 1.005 ± 0.0073
ATTTGGCGT | 1.01 ± 0.018
TAGTCAGTCG | 1.08 ± 0.11
AGATCGGGTG | 1 ± 0.021
CTTATTCGTC | 1.04 ± 0.025
GGGCTAAAGA | 1.01 ± 0.013
ATCGGGAGGG | 1 ± 0.013
AGAGTCTGGT | 0.965 ± 0.03
TTTTTCAGGT | 0.997 ± 0.015
GATGCAGGGC | 1.12 ± 0.081
CCAGCAGGGA | 1.37 ± 0.49
GGGGCGAGAG | 0.9939 ± 0.0046
TTAGTAGATT | 0.991 ± 0.036
GTTAGTTGTT | 0.987 ± 0.013

Sequence | switch fluorescence ratio
AACTATCTTG | 1 ± 0.0027
ATCCTAGTGT | 1.04 ± 0.052
TGGTCCTAGT | 0.975 ± 0.017
ATGATAGATA | 1.004 ± 0.0047
TCTATGGCTA | 1.03 ± 0.03
GAGGGGATGT | 0.978 ± 0.026
TTAATTTGGT | 0.971 ± 0.03
CCGGGGACTG | 1.1 ± 0.033
TTGCCACTCT | 1.04 ± 0.064
TTGGTTTAAT | 1.01 ± 0.034
AATAGAGGAG | 1.012 ± 0.007
TTAGAGGGGA | 0.985 ± 0.031
ATGGTGCGGT | 0.987 ± 0.02
TTTAACCGTA | 1.02 ± 0.023
TGTTGCCGTT | 0.886 ± 0.057
TTTAGGCCAT | 1.017 ± 0.01
ATACTTTTTT | 1.01 ± 0.061
AATGCAATTG | 1.03 ± 0.016
ATGTAAGATT | 0.9891 ± 0.0047
ATTTTTGATG | 1.02 ± 0.073
CTAATTTTTC | 0.9878 ± 0.0026
TTCCCCGGCA | 1.28 ± 0.35
GAAGGAGAAG | 0.955 ± 0.0083
AAGGTATCAT | 0.978 ± 0.018
GTTGCTAGTG | 0.973 ± 0.024

Sequence | switch fluorescence ratio
TTAGTATTGG | 1.02 ± 0.019
TTTTTAAGTT | 1 ± 0.028
GGTACCTTAG | 1.059 ± 0.0087
GGTTGGGGGC | 0.991 ± 0.025
ATTCTGATGC | 1.05 ± 0.0092
GTTGGGTTTT | 1.02 ± 0.06
AAACCGGGCA | 1.22 ± 0.22
CTTGTGCAAG | 1.03 ± 0.024
CGCTGTGGGC | 0.988 ± 0.044
GGTCGAGCC | 0.983 ± 0.021
TTGGATGCCT | 1.01 ± 0.047
ATTACGCTGG | 1.01 ± 0.024
AACCAGAGTA | 1.011 ± 0.0039
TTTAGATAAT | 1 ± 0.014
TTATAAATAT | 1.08 ± 0.044
TTTGTATGGT | 0.976 ± 0.011
TTATCTGTTT | 1.02 ± 0.028
GTTTCGGGGA | 1 ± 0.038
GGGGTAGACT | 0.995 ± 0.018
GGGCCTTTAT | 1.017 ± 0.0089
TTCTTGATTT | 1 ± 0.035
TTTCATATTT | 1.03 ± 0.014
GGGTCTGAGT | 0.9621 ± 0.009
TAGCATCTTT | 0.98 ± 0.067
GGGTACGTCA | 1.03 ± 0.071
